Test results: patent publication US20240279318A1 (NANJING LEGEND BIOTECH, published 2024)
Changes are numbered by the printed parent chain. Blank lines part the entries; values can stand above or below the binder they belong to.

How the values were obtained:
[1] = molecular target: T1, AFP158/HLA-A*02:01 complex (human); assay: SPR, fold vs AS170036 VL1VH1;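 further: crude scFv muteins immobilised on a sensor chip, peptide–MHC complex passed over at several concentrations, binding then buffer-driven dissociation, KD estimated from on- and off-rates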
T1 construct: flowed as analyte in SPR
Description: (§1) The experiment was carried out as follows. The crude scFv protein were captured onto the sensorchip. Different concentrations (320, 160, 40 nM) of AFP158/HLA-A*02:01 complex flowed over the sensorchip surface, and were allowed to bind the antibody fragment for 100 s followed by injection of the running buffer to allow dissociation of the complex. On-rate (kd) and off-rate (kd) were calculated based on association and dissociation curve, and were used to estimate the equilibrium dissociation constant (KD).
(§2) The crude scFv muteins were then subjected to SPR affinity measurement by the method mentioned above.

[2] = molecular target: T1, AFP158/HLA-A*02:01 complex; assay: SPR, crude scFv captured, pMHC analyte;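 further: complex injected at several concentrations over the chip, association phase then running buffer for dissociation, KD derived from on- and off-rates computed from both curves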
Description: as §1, §2

[3] = molecular target: T2, AFP158/HLA-A*02:01 complex (human); assay: SPR, KD ratio to AS170036 VL1VH1;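 further: crude scFv captured on a sensor chip, peptide–HLA complex passed over at several concentrations, association then buffer dissociation, KD derived from on- and off-rates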
T2 construct: flowed over the chip in SPR; also called AFP158 pro
Description: as §1

[4] = molecular target: T2, AFP158/HLA-A*02:01 complex; assay: SPR, scFv captured, pMHC in flow;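 further: complex injected at several concentrations over crude scFv, association then running-buffer dissociation, KD estimated from kinetic on- and off-rate constants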
Description: as §1

B1: AS170036 VL1VH1-56N98F108A (scFv)
scFv: QSALTQPRSVSGSPGQSVTISCAGTSSDVGSENYVSWYQQHPGKAPKLMIYQVNKRASGVPDRFSGSKSGNTASLTISGLQAEDEADYYCASYRSSDFNIVFGGGTKLTVLGGGGSGGGGSGGGGSEVQLVESGGGLVQPGGSLRLSCAASGFTFSSYAMSWVRQAPGKGLEWVSTINSGTNSPYYADSVKGRFTISRDNSKNTLYLQMNSLRAEDTAVYYCAKNFFDGSWFLAPPAMDYWGQGTLVTVSSHHHHHH
notes: also called 49-AS170036 VL1VH1-56N98F108A
Affinity increase [1]: 41.7 fold
Kd [2]: 5.4 nM
koff [2]: 0.0015 s⁻¹
kon [2]: 270000 M⁻¹ s⁻¹

B2: AS170036 VL1VH1-56N98F108D (scFv)
scFv: B1 scFv with A234D
notes: also called 50-AS170036 VL1VH1-56N98F108D
Affinity increase [1]: 36.4 fold
Kd [2]: 6.2 nM
koff [2]: 0.0019 s⁻¹
kon [2]: 310000 M⁻¹ s⁻¹

B3: AS170036 VL1VH1-56N98Q108A (scFv)
scFv: B1 scFv with F98Q
notes: also called 55-AS170036 VL1VH1-56N98Q108A
Affinity increase [1]: 54.1 fold
Kd [2]: 4.2 nM
koff [2]: 0.001 s⁻¹
kon [2]: 240000 M⁻¹ s⁻¹

B4: AS170036 VL1VH1-57H98I108S (scFv)
scFv: B1 scFv with F98I, N182G, S183H, A234S
notes: also called 63-AS170036 VL1VH1-57H98I108S
Affinity increase [1]: 26.4 fold
Kd [2]: 8.5 nM
koff [2]: 0.0014 s⁻¹
kon [2]: 160000 M⁻¹ s⁻¹

B5: AS170036 VL1VH1-56N98F108S (scFv)
scFv: B1 scFv with A234S
notes: also called 51-AS170036 VL1VH1-56N98F108S
Affinity increase [1]: 17.6 fold
Kd [2]: 13 nM
koff [2]: 0.0028 s⁻¹
kon [2]: 210000 M⁻¹ s⁻¹

B6: AS170036 VL1VH1-56N98I108S (scFv)
scFv: B1 scFv with F98I, A234S
notes: also called 54-AS170036 VL1VH1-56N98I108S
Affinity increase [1]: 22.3 fold
Kd [2]: 10 nM
koff [2]: 0.0019 s⁻¹
kon [2]: 190000 M⁻¹ s⁻¹

B7: AS170036 VL1VH1-56N98I108D (scFv)
scFv: B1 scFv with F98I, A234D
notes: also called 53-AS170036 VL1VH1-56N98I108D
Affinity increase [1]: 44.4 fold
Kd [2]: 5.1 nM
koff [2]: 0.0014 s⁻¹
kon [2]: 280000 M⁻¹ s⁻¹

B8: AS170036 VL1VH1-57H98F108S (scFv)
scFv: B1 scFv with N182G, S183H, A234S
notes: also called 60-AS170036 VL1VH1-57H98F108S
Affinity increase [1]: 66.2 fold
Kd [2]: 3.4 nM
koff [2]: 0.00068 s⁻¹
kon [2]: 200000 M⁻¹ s⁻¹

B11: AS170036 VL1VH1-56Y98F108S (scFv)
scFv: B1 scFv with N182Y, A234S
notes: also called 42-AS170036 VL1VH1-56Y98F108S
Affinity increase [1]: 56.3 fold
Kd [2]: 4 nM
koff [2]: 0.00074 s⁻¹
kon [2]: 190000 M⁻¹ s⁻¹

B13: HS57R (scFv)
scFv: B1 scFv with F98H, N182G, S183R, A234G
notes: AS170036 VL1VH1 scFv mutein; also called AS170036 VL1VH1-VHS57R
Affinity increase [3]: 2.8 fold
Kd [4]: 88 nM

B17: AS170036 VL1VH1-56N98I108A (scFv)
scFv: B1 scFv with F98I
notes: also called 52-AS170036 VL1VH1-56N98I108A
Affinity increase [1]: 62 fold
Kd [2]: 3.6 nM
koff [2]: 0.00093 s⁻¹
kon [2]: 260000 M⁻¹ s⁻¹

B18: AS170036 VL1VH1-57H98I108A (scFv)
scFv: B1 scFv with F98I, N182G, S183H
notes: also called 61-AS170036 VL1VH1-57H98I108A
Affinity increase [1]: 67.6 fold
Kd [2]: 3.3 nM
koff [2]: 0.00076 s⁻¹
kon [2]: 230000 M⁻¹ s⁻¹

B20: HS57Y (scFv)
scFv: B1 scFv with F98H, N182G, S183Y, A234G
notes: AS170036 VL1VH1 scFv mutein
Affinity increase [3]: 1.2 fold
Kd [4]: 200 nM

B21: HS57W (scFv)
scFv: B1 scFv with F98H, N182G, S183W, A234G
notes: AS170036 VL1VH1 scFv mutein
Affinity increase [3]: 0.6 fold
Kd [4]: 380 nM

B22: HS57T (scFv)
scFv: B1 scFv with F98H, N182G, S183T, A234G
notes: AS170036 VL1VH1 scFv mutein
Affinity increase [3]: 1.1 fold
Kd [4]: 220 nM

B25: AS170036 VL1VH1-56N98Q108S (scFv)
scFv: B1 scFv with F98Q, A234S
notes: also called 57-AS170036 VL1VH1-56N98Q108S
Affinity increase [1]: 20.8 fold
Kd [2]: 11 nM
koff [2]: 0.0019 s⁻¹
kon [2]: 180000 M⁻¹ s⁻¹

B28: AS170036 VL1VH1-56N98Q108D (scFv)
scFv: B1 scFv with F98Q, A234D
notes: also called 56-AS170036 VL1VH1-56N98Q108D
Affinity increase [1]: 39.1 fold
Kd [2]: 5.8 nM
koff [2]: 0.0015 s⁻¹
kon [2]: 260000 M⁻¹ s⁻¹

B29: AS170036 VL1VH1-57H98I108D (scFv)
scFv: B1 scFv with F98I, N182G, S183H, A234D
notes: also called 62-AS170036 VL1VH1-57H98I108D
Affinity increase [1]: 45.9 fold
Kd [2]: 4.9 nM
koff [2]: 0.0012 s⁻¹
kon [2]: 250000 M⁻¹ s⁻¹

B30: AS170036 VL1VH1-56Y98Q108S (scFv)
scFv: B1 scFv with F98Q, N182Y, A234S
notes: also called 48-AS170036 VL1VH1-56Y98Q108S
Affinity increase [1]: 67.4 fold
Kd [2]: 3.3 nM
koff [2]: 0.00055 s⁻¹
kon [2]: 160000 M⁻¹ s⁻¹

Results, then the binder that gave them:

Affinity increase [1]: 90.7 fold
Kd [2]: 2.5 nM
koff [2]: 0.00063 s⁻¹
kon [2]: 250000 M⁻¹ s⁻¹
B9: AS170036 VL1VH1-57H98Q108D (scFv)
scFv: B1 scFv with F98Q, N182G, S183H, A234D
notes: also called 65-AS170036 VL1VH1-57H98Q108D

Affinity increase [1]: 142 fold
Kd [2]: 1.6 nM
koff [2]: 0.00038 s⁻¹
kon [2]: 240000 M⁻¹ s⁻¹
B10: AS170036 VL1VH1-56Y98F108A (scFv)
scFv: B1 scFv with N182Y
notes: also called 40-AS170036 VL1VH1-56Y98F108A

Affinity increase [1]: 124 fold
Kd [2]: 1.8 nM
koff [2]: 0.00053 s⁻¹
kon [2]: 290000 M⁻¹ s⁻¹
B12: AS170036 VL1VH1-57H98F108D (scFv)
scFv: B1 scFv with N182G, S183H, A234D
notes: also called 59-AS170036 VL1VH1-57H98F108D

Affinity increase [1]: 152 fold
Kd [2]: 1.5 nM
koff [2]: 0.00038 s⁻¹
kon [2]: 260000 M⁻¹ s⁻¹
B14: AS170036 VL1VH1-56Y98I108D (scFv)
scFv: B1 scFv with F98I, N182Y, A234D
notes: also called 44-AS170036 VL1VH1-56Y98I108D

Affinity increase [1]: 212 fold
Kd [2]: 1.1 nM
koff [2]: 0.00025 s⁻¹
kon [2]: 240000 M⁻¹ s⁻¹
B15: AS170036 VL1VH1-56Y98I108A (scFv)
scFv: B1 scFv with F98I, N182Y
notes: also called 43-AS170036 VL1VH1-56Y98I108A

Affinity increase [1]: 146 fold
Kd [2]: 1.5 nM
koff [2]: 0.0004 s⁻¹
kon [2]: 260000 M⁻¹ s⁻¹
B16: AS170036 VL1VH1-57H98F108A (scFv)
scFv: B1 scFv with N182G, S183H
notes: also called 58-AS170036 VL1VH1-57H98F108A

Affinity increase [1]: 110 fold
Kd [2]: 2 nM
koff [2]: 0.00054 s⁻¹
kon [2]: 270000 M⁻¹ s⁻¹
B19: AS170036 VL1VH1-56Y98F108D (scFv)
scFv: B1 scFv with N182Y, A234D
notes: also called 41-AS170036 VL1VH1-56Y98F108D

Affinity increase [1]: 183 fold
Kd [2]: 1.2 nM
koff [2]: 0.00028 s⁻¹
kon [2]: 230000 M⁻¹ s⁻¹
B23: AS170036 VL1VH1-56Y98Q108A (scFv)
scFv: B1 scFv with F98Q, N182Y
notes: also called 46-AS170036 VL1VH1-56Y98Q108A

Affinity increase [1]: 122 fold
Kd [2]: 1.8 nM
koff [2]: 0.00044 s⁻¹
kon [2]: 240000 M⁻¹ s⁻¹
B24: AS170036 VL1VH1-56Y98Q108D (scFv)
scFv: B1 scFv with F98Q, N182Y, A234D
notes: also called 47-AS170036 VL1VH1-56Y98Q108D

Affinity increase [1]: 81.5 fold
Kd [2]: 2.8 nM
koff [2]: 0.0005 s⁻¹
kon [2]: 180000 M⁻¹ s⁻¹
B26: AS170036 VL1VH1-56Y98I108S (scFv)
scFv: B1 scFv with F98I, N182Y, A234S
notes: also called 45-AS170036 VL1VH1-56Y98I108S

Affinity increase [1]: 128 fold
Kd [2]: 1.8 nM
koff [2]: 0.00041 s⁻¹
kon [2]: 230000 M⁻¹ s⁻¹
B27: AS170036 VL1VH1-57H98Q108A (scFv)
scFv: B1 scFv with F98Q, N182G, S183H
notes: also called 64-AS170036 VL1VH1-57H98Q108A
